Results reported in paper PMC3750045, “Human RNase H1 Is Associated with Protein P32 and Is Involved in Mitochondrial Pre-rRNA Processing” (PLoS ONE, 2013).

B1: GST-P32 fusion protein (natural protein, human, UniProt Q07021 74-282, looked up)
chain: LHTDGDKAFVDFLSDEIKEERKIQKHKTLPKMSGGWELELNGTEAKLVRKVAGEKITVTFNINNSIPPTFDGEEEPSQGQKVEEQEPELTSTPNFVVEVIKNDDGKKALVLDCHYPEDEVGQEDEAESDIFSIREVSFQSTGESEWKDTNYTLNTDSLDWALYDHLMDFLADRGVDNTFADELVELSTALEHQEYITFLEDLKSFVKSQ
B2: N-terminal His-tagged human RNase H1 (recombinant) (enzyme, UniProt O60930 1-286, looked up)
chain: MSWLLFLAHRVALAALPCRRGSRGFGMFYAVRRGRKTGVFLTWNECRAQVDRFPAARFKKFATEDEAWAFVRKSASPEVSEGHENQHGQESEAKASKRLREPLDGDGHESAEPYAKHMKPSVEPAPPVSRDTFSYMGDFVVVYTDGCCSSNGRRRPRAGIGVYWGPGHPLNVGIRLPGRQTNQRAEIHAACKAIEQAKTQNINKLVLYTDSMFTINGITNWVQGWKKNGWKTSAGKEVINKEDFVALERLTQGMDIQWMHVPGHSGFIGNEEADRLAREGAKQSED
notes: human RNase H1, 286 residues (domains printed as aa1-72, aa73-135, aa136-286), in the pET 3C vector; also called His-H1; His-tag RNase H1; source: E. coli BL21 (DE3), lysed in 6 M guanidine, purified (Ni-NTA agarose)

Tests used:
[1] = molecular target: B2; assay: cell-based or functional assay
GST-P32 fusion protein = molecular target: B1; assay: pull-down; fixed amount of GST-P32 on GST beads, increasing amounts of RNase H1 (0.025–2.0 µg/400 µl), room temperature 15–20 minutes; glutathione elution; bound RNase H1 and P32 quantified by Western blot against known amounts; conditions: both partners purified
His-RNase H1 = molecular target: T1, His-RNase H1 (Homo sapiens, UniProt O60930 1-286); assay: EMSA; 2 mM Mg2+, 4 C; EMSA: 20 mM Tris pH 7.0, 20 mM NaCl, 2 mM MgCl2, 5% glycerol, 30 min at 4 C; cleavage buffer (described for IP activity assays; competition conditions by reference): 20 mM Tris pH 7.5, 50 mM NaCl, 2 mM MgCl2, 5 mM 2-mercaptoethanol, 37 C; conditions: protein: recombinant; tags: N-terminal His; label: 32P (5' end)
T1 sequence: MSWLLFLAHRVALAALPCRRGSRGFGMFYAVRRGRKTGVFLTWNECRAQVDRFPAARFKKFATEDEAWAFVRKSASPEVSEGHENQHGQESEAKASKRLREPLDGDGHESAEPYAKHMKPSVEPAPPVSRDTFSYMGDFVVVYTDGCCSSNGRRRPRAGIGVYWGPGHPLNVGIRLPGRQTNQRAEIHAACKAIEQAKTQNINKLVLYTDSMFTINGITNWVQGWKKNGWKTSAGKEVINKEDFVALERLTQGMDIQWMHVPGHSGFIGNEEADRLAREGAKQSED

B1
increase in Km of RNase H1 for the RNA/DNA duplex with GST-P32 at H1:P32 ratios of 1:1 and 1:5, against RNase H1 with GST control [1]: ~5 fold | increase in kcat of RNase H1 cleavage of the RNA/DNA duplex with GST-P32, against control RNase H1 [1]: ~2 fold

B2
stoichiometry N (GST-P32 fusion protein): ~1.43 molecules of RNase H1 to 1 molecule of P32

B3: Duplex B, non-cleavable Apo B 2'-fluoro RNA/DNA heteroduplex (XNA)
RNA: GGAUGGUAGCACAAGUGACA
DNA: TGTCCTTGTGCTACCATCC
modifications: strand 1 uniformly 2'-fluoro RNA; strand 2 DNA
binding result (His-RNase H1): binds
